Experimental data: article PMC3382428

Assays:
[1] = target: gp130 on human cord blood Lin-CD34+ cells (human (endogenous in cord blood Lin-CD34+ cells)) (UniProt P40189)
[2] = target: gp130 on Ba/F3-gp130 cells (UniProt P40189)
[3] = target: IL-6R (Homo sapiens) (UniProt P08887); details: cited from earlier work
Chain of IL-6R (Homo sapiens) (P08887 20-355): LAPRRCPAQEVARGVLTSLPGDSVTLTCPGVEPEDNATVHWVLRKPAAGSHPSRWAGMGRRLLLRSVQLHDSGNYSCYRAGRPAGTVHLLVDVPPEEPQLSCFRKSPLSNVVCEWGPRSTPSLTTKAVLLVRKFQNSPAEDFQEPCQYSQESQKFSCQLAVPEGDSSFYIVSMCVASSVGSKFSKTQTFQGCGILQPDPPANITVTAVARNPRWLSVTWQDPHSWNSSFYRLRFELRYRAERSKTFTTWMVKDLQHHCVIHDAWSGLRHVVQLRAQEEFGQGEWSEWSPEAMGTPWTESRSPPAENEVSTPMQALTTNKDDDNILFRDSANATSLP

Chain of gp130 on Ba/F3-gp130 cells (P40189 23-918): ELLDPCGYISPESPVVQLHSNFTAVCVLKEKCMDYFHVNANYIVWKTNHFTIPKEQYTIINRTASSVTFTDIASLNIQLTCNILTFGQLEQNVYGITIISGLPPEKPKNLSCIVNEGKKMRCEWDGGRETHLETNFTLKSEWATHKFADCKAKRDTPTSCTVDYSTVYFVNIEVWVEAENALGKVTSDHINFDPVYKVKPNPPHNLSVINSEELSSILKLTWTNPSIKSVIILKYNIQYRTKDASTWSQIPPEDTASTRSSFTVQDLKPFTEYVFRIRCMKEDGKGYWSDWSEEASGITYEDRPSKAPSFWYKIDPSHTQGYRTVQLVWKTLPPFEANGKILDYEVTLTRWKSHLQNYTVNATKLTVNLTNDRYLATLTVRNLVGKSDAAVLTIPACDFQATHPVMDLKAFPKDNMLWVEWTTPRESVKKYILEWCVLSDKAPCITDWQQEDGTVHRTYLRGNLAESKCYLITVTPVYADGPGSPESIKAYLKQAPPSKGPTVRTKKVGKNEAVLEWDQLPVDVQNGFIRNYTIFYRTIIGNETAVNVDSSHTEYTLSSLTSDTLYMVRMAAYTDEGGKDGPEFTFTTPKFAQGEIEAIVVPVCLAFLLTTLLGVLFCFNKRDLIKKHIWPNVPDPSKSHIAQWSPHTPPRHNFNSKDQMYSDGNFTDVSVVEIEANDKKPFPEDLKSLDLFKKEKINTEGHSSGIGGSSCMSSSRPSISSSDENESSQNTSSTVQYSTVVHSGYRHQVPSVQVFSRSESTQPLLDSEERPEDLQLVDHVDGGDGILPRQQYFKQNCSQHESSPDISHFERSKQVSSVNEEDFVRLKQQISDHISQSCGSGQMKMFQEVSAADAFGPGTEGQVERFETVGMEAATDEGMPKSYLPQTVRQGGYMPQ
Chain of IL-6 (P05231 30-212): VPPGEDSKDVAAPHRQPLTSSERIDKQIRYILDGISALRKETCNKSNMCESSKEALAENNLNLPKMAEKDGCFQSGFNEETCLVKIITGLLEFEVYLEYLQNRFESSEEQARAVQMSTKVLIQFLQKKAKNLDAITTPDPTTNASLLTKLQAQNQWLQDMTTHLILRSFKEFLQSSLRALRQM
Chain of gp130 on human cord blood Lin-CD34+ cells (human (endogenous in cord blood Lin-CD34+ cells)) (P40189 23-918): as the sequence (P40189 23-918) above

Substance | CD235a+ (erythroid) cells in Lin-CD34+ liquid culture with 50 ng/ml H11, day 14, flow cytometry (27% with Hyper-IL-6, 20% in control culture) [1] | proliferation of Ba/F3-gp130 cells (MTT, 72 h): dose of H11 for half-maximum proliferation [2] | Kd [3]
Hyper IL-11 (H11) (from UniProt Q14626 23-365; P20809 19-199) | 39% | 800 to 900 pM | 
IL-6 (from UniProt P05231) |  |  | 1 nM
